Measured values: patent publication US20230174651A1

Assays:
[1] = target: CD79b CAR with CD8α hinge as the spacer; test: flow cytometry, NK cell line-1 transduced with CD79b CAR construct 441HL at MOI 5, AF647-CD79b at 1 µg/ml; same gate on untransduced (UTD) cells 0.23
Target sequence (P01732 138-182): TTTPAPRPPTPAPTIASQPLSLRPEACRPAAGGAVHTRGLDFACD

[2] = target: CD79b CAR with CD8α hinge as the spacer; test: flow cytometry, NK cell line-2 transduced with CD79b CAR construct 137LH at MOI 5, AF647-CD79b at 1 µg/ml; same gate on untransduced (UTD) cells 0.32
[3] = target: CD79b CAR with CD8α hinge as the spacer; test: flow cytometry, NK cell line-2 transduced with CD79b CAR construct 137LH at MOI 20, AF647-CD79b at 1 µg/ml; same gate on untransduced (UTD) cells 0.32
[4] = target: CD79b CAR with CD8α hinge as the spacer; test: flow cytometry, NK cell line-1 transduced with CD79b CAR construct 137LH at MOI 5, AF647-CD79b at 1 µg/ml; same gate on untransduced (UTD) cells 0.23
[5] = target: CD79b CAR with CD8α hinge as the spacer; test: flow cytometry, NK cell line-1 transduced with CD79b CAR construct 137LH at MOI 20, AF647-CD79b at 1 µg/ml; same gate on untransduced (UTD) cells 0.23
[6] = target: CD79b CAR with CD8α hinge as the spacer; test: flow cytometry, NK cell line-1 transduced with CD79b CAR construct 441HL at MOI 20, AF647-CD79b at 1 µg/ml; same gate on untransduced (UTD) cells 0.23
[7] = target: CD79b CAR with CD8α hinge as the spacer; test: flow cytometry, NK cell line-2 transduced with CD79b CAR construct 441HL at MOI 5, AF647-CD79b at 1 µg/ml; same gate on untransduced (UTD) cells 0.32
[8] = target: CD79b CAR with CD8α hinge as the spacer; test: flow cytometry, NK cell line-2 transduced with CD79b CAR construct 441HL at MOI 20, AF647-CD79b at 1 µg/ml; same gate on untransduced (UTD) cells 0.32

AF647-CD79b, sequence (P40259 29-159 limits assumed): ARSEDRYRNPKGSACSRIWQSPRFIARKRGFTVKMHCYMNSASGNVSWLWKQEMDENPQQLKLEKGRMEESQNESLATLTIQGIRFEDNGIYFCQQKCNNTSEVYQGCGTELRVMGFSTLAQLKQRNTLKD

% positive (CD79b CAR+ NK cells) [1]: 69.9% | % positive (CD79b CAR+ NK cells) [2]: 47.4% | % positive (CD79b CAR+ NK cells) [3]: 71.2% | % positive (CD79b CAR+ NK cells) [4]: 67.1% | % positive (CD79b CAR+ NK cells) [5]: 74.5% | % positive (CD79b CAR+ NK cells) [6]: 80.8% | % positive (CD79b CAR+ NK cells) [7]: 72.2% | % positive (CD79b CAR+ NK cells) [8]: 85.2%
Substance: AF647-CD79b (from UniProt P40259 29-159)
